T1: C-terminally truncated Sso7c4 (Sulfolobus solfataricus P2, UniProt A0A0E3K9N8 1-48, del49-54)
T1 chain: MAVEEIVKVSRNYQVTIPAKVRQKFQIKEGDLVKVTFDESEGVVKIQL


Assays:
Sso7c4 wild-type [1] = target: T2, Sso7c4 wild-type (Sulfolobus solfataricus P2, UniProt A0A0E3K9N8 1-54); assay: fluorescence polarization; 20 mM Tris-Cl pH 7.5, no added salt, 25 C; FP with 100 nM FAM-DNA, 1 h at room temperature; conditions: protein: recombinant; chain copies: 2; label: 5'-FAM; blunt, self-complementary
Target sequence in this assay (A0A0E3K9N8 entry or part of it): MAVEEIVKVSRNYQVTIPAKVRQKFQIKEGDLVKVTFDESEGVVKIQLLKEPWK

[2] = target: T1, C-terminally truncated Sso7c4; assay: as above; conditions: protein: recombinant; chain copies: 2; label: 5'-FAM; blunt, self-complementary
Sso7c4-R11A = Sso7c4-R11A (Sulfolobus solfataricus P2, UniProt A0A0E3K9N8 1-54, R11A); assay: as above; conditions: protein: recombinant; chain copies: 2; label: 5'-FAM; blunt, self-complementary
Sso7c4-R22A = Sso7c4-R22A (Sulfolobus solfataricus P2, UniProt A0A0E3K9N8 1-54, R22A); assay: as above; conditions: protein: recombinant; chain copies: 2; label: 5'-FAM; blunt, self-complementary
Sso7c4 wild-type [3] = target: T2, Sso7c4 wild-type; assay: bulk FRET; saturating protein; DNA bent; 20 mM Tris-Cl pH 7.5, no added salt, 25 C; FP with 100 nM FAM-DNA, 1 h at room temperature; conditions: protein: recombinant; chain copies: 2; label: Cy3 and Cy5 on the 5' ends; blunt
[4] = target: T1, C-terminally truncated Sso7c4; assay: bulk FRET; saturating protein; slight change; 20 mM Tris-Cl pH 7.5, no added salt, 25 C; FP with 100 nM FAM-DNA, 1 h at room temperature; conditions: protein: recombinant; chain copies: 2; label: Cy3 and Cy5 on the 5' ends; blunt
[5] = target: T1, C-terminally truncated Sso7c4; assay: bulk FRET; saturating protein; DNA straightened; 20 mM Tris-Cl pH 7.5, no added salt, 25 C; FP with 100 nM FAM-DNA, 1 h at room temperature; conditions: protein: recombinant; chain copies: 2; label: Cy3 and Cy5 on the 5' ends; blunt
Sso7c4 wild-type [6] = target: T2, Sso7c4 wild-type; assay: tryptophan fluorescence quenching; 20 mM Tris-Cl pH 7.5, no added salt, 25 C; FP with 100 nM FAM-DNA, 1 h at room temperature; conditions: protein: recombinant; chain copies: 2; blunt, self-complementary
Target sequence in this assay (A0A0E3K9N8 entry or part of it): as above

Sso7c4-R11A, sequence (A0A0E3K9N8 entry or part of it R11A | R11A R11A): as the sequence (A0A0E3K9N8 entry or part of it) above, with R11A counted along it
Sso7c4-R22A, sequence (A0A0E3K9N8 entry or part of it R22A | R22A R22A): as the sequence (A0A0E3K9N8 entry or part of it) above, with R22A counted along it

| Binder | Kd (Sso7c4 wild-type [1]) [µM] | Kd [2] [µM] | binding result (Sso7c4 wild-type [3]) | other results |
| --- | --- | --- | --- | --- |
| 5'-FAM-20-bp DNA (dsDNA) DNA 1: CCAACACTGGCCAGTGTTGG DNA 2: CCAACACTGGCCAGTGTTGG | 2.73 ± 0.18 | 12 ± 0.53 |  | Kd (Sso7c4-R11A): 3.19 ± 0.12 µM; Kd (Sso7c4-R22A): 5.07 ± 0.15 µM |
| 24 bp FRET DNA (dsDNA) DNA 1: CGTGCTCTGCGATCTCTTCGATAA DNA 2: TTATCGAAGAGATCGCAGAGCACG |  |  | binds | binding result [4]: binds |
| 5'-FAM-8-bp DNA (dsDNA) DNA 1: CGCTAGCG DNA 2: CGCTAGCG | 14.2 ± 0.26 | 15.9 ± 0.53 |  |  |
| 30 bp FRET DNA (dsDNA) DNA 1: CGTGCTCTGCGATCTCTTCGATAACCATAG DNA 2: CTATGGTTATCGAAGAGATCGCAGAGCACG |  |  | binds | binding result [5]: binds |
| 5'-FAM-10-bp DNA (dsDNA) DNA 1: CCTACGTAGG DNA 2: CCTACGTAGG | 3.12 ± 0.16 | 11 ± 0.41 |  |  |
| 20-bp DNA unlabeled (dsDNA) DNA 1: CCAACACTGGCCAGTGTTGG DNA 2: CCAACACTGGCCAGTGTTGG |  |  |  | Kd (Sso7c4 wild-type [6]): 22.8 µM |

From publication PMC5222340, “The Arginine Pairs and C-Termini of the Sso7c4 from Sulfolobus solfataricus Participate in Binding and Bending DNA”
